Reference: US20240116985A1 (published 2024)
Starred links: 1 amine or outer side, 2 acyl side, 3 side chain; linkers in the order of their positions; H or OH if unused. Positions of bridges follow the written chain, without caps; N, C: chain ends. Non-standard residues stand in square brackets, D forms with d. Primed or numbered codes have the meaning given here. B5(11) = 2,2-bis(4-pentenyl)glycine = 2-amino-2-(pent-4-en-1-yl)hept-6-enoic acid (stitching residue, bears both staples), C=CCCCC(CCCC=C)(N[*:1])C(=O)[*:2]; B5(4) = 2,2-bis(4-pentenyl)glycine = 2-amino-2-(pent-4-en-1-yl)hept-6-enoic acid (stitching residue), C=CCCCC(CCCC=C)(N[*:1])C(=O)[*:2]; B5(5) = 2,2-bis(4-pentenyl)glycine, 2-amino-2-(pent-4-en-1-yl)hept-6-enoic acid (stitching residue), C=CCCCC(CCCC=C)(N[*:1])C(=O)[*:2]; SeN = (S)-5-(((allyloxy)carbonyl)(methyl)amino)-2-amino-2-methylpentanoic acid, C=CCOC(=O)N(C)CCC[C@](C)(N[*:1])C(=O)[*:2]; B5(19) = 2-amino-2-(pent-4-en-1-yl)hept-6-enoic acid (bis(4-pentenyl)glycine), C=CCCCC(CCCC=C)(N[*:1])C(=O)[*:2]; B5 = 2-amino-2-(pent-4-en-1-yl)hept-6-enoic acid, C=CCCCC(CCCC=C)(N[*:1])C(=O)[*:2]; Phe(3,4,5-F3) = N[C@@H](Cc1cc(F)c(F)c(F)c1)C(=O)O; Phe(3-Cl) = N[C@@H](Cc1cccc(Cl)c1)C(=O)O; Phe(4-NH2) = Nc1ccc(C[C@H](N)C(=O)O)cc1; Phe(3-Me) = Cc1cccc(C[C@H](N)C(=O)O)c1; αAllylPro = C=CC[C@@]1(C(=O)O)CCCN1; 3Thi = N[C@@H](Cc1ccsc1)C(=O)O; S8 = C=CCCCCCC[C@](C)(N)C(=O)O

T1: full-length beta-Catenin (Uniprot ID P35222) (Homo sapiens (Human), UniProt P35222 1-781)
T1 construct: Used full-length in the FP and AlphaScreen assays; also called B-Catenin; bCat
T1 sequence: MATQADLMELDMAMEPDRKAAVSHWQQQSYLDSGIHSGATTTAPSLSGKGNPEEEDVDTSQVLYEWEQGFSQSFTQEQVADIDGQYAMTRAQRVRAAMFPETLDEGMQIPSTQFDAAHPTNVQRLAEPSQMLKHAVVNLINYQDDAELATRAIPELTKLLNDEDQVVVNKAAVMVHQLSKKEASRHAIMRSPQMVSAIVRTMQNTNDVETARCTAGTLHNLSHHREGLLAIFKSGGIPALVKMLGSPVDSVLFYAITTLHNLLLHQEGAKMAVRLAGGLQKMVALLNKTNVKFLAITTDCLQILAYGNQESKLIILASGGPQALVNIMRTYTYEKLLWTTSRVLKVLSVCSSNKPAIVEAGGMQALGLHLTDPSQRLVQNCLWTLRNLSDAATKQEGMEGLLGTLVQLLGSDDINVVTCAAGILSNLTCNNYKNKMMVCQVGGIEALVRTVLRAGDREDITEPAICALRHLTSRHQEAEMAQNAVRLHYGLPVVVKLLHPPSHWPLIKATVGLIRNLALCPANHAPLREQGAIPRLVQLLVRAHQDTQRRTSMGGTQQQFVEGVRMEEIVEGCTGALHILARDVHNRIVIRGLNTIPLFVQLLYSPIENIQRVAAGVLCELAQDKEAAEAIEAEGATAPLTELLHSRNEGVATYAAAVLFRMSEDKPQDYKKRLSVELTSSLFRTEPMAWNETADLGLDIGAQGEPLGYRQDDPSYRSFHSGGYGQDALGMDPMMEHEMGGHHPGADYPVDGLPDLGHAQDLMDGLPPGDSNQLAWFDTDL

T2: full-length beta-Catenin (Uniprot ID P35222) (Homo sapiens (Human), UniProt P35222 1-781)
T2 construct: the AlphaScreen used a Histidine (Nickel Chelate) detection kit, so a His tag is likely but not described; also called B-Catenin; bCat
T2 sequence: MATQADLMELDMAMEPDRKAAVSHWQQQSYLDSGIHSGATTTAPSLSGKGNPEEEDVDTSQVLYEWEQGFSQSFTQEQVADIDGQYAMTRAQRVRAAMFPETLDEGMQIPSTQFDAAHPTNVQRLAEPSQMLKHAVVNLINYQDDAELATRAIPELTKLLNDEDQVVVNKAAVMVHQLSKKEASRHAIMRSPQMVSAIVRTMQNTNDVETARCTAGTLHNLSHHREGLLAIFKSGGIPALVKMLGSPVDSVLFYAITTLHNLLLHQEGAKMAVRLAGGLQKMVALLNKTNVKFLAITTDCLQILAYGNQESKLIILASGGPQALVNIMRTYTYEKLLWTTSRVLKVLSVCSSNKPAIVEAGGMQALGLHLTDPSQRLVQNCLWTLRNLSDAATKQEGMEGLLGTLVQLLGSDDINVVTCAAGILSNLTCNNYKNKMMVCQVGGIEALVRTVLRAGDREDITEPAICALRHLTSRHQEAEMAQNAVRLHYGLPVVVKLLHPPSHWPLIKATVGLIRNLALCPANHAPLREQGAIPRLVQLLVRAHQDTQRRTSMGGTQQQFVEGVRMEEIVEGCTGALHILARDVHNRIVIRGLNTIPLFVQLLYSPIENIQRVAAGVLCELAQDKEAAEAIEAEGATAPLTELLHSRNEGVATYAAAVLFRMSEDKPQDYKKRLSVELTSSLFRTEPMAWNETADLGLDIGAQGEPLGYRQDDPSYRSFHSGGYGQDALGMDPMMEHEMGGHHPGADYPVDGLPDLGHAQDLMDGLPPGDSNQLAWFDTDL


Assays:
[1] = biological target: T1, full-length beta-Catenin (Uniprot ID …); assay: fluorescence polarization competition; full-length beta-catenin + 5FAM-TCF4(10-53) probe as competitor; peptide titrated
Experimental: (§1) The plate was incubated protected from light for 60 minutes at 20° C. prior to read. Reads were performed on a CLARIOstar plate reader (BMG Labtech) in duplicate, and data were fitted to a 1:1 binding model with hill slope using an in-house script. All provided concentrations are final concentrations.

[2] = biological target: T1, full-length beta-Catenin (Uniprot ID …); assay: AlphaScreen (nickel chelate) competition; full-length beta-catenin + biotin-TCF4(10-53) probe as competitor; peptide titrated
Experimental: as §1, with “Equal volume of the titrated peptide was added to the” for “The”, “and” for “was”, “incubated for 15 minutes at 20° C. Then 4 uL of donor and 4 uL acceptor beads at 10 ug/mL were added to the plate, for a 16 uL reaction pool and” for “incubated”

[3] = biological target: T2, full-length beta-Catenin (Uniprot ID …); assay: FP competition vs 5FAM-TCF4(10-53) probe on full-length beta-catenin
Experimental: as §1

Binder	EC50 [1]	EC50 [2]	EC50 [3]
Ac-[αAllylPro]DA[B5(4)]DEAA[Phe(3-Me)]V[S8]FWQ-NH2 (staple 1-4, 4-11, Stapled peptide composition) [I-207]	1740 nM	143 nM	
XDAXDEAAFQXFWH (not fully specified; As printed: Ac-PL3-Asp-Ala-B5-Asp-Glu-Ala-Ala-Phe-Gln-S8-Phe-Trp-His-NH2. N-terminal Ac; C-terminal amide; PL3 (1), B5 (4), S8 (11) stapled by olefin metathesis (PL3-B5 and B5-S8), Stapled peptide composition) [I-178]	1630 nM	152 nM	
Ac-[αAllylPro]DI[B5(5)]DEAAFV[S8]FWH-NH2 (staple 1-4, 4-11, Stapled peptide composition) [I-176]	1990 nM	549 nM	
Ac-[αAllylPro]DA[B5(11)]DDAA[Phe(4-NH2)]V[S8]FWQ-NH2 (staple 1-4, 4-11; not fully specified; printed as Ac-PL3-Asp-Ala-B5-Asp-Asp-Ala-Ala-4AmPhe-Val-S8-Phe-Trp-Gln-NH2, Ac-PL3-Asp-Ala-B5-Asp-Asp-Ala-Ala-4AmPhe-Val-S8-Phe-Trp-Gln-NH2; stapled peptide composition) [I-322]			5000 nM
Ac-[αAllylPro]DI[B5(5)]DDAAFQ[SeN]FWH-NH2 (staple 1-4, 4-11; not fully specified; printed as Ac-PL3-Asp-Ile-B5-Asp-Asp-Ala-Ala-Phe-Gln-SeN-Phe-Trp-His-NH2, Stapled peptide composition) [I-188]	1600 nM	156 nM	
Ac-[αAllylPro]DA[B5(4)]DEAA[Phe(3,4,5-F3)]V[S8]FWQ-NH2 (staple 1-4, 4-11, Stapled peptide composition) [I-212]	5000 nM		
Ac-[αAllylPro]DA[B5(11)]DDAA[Phe(4-NH2)]V[S8]FWQ-NH2 (staple 1-4, 4-11; not fully specified; printed as Ac-PL3-Asp-Ala-B5-Asp-Asp-Ala-Ala-4AmPhe-Val-S8-Phe-Trp-Gln-NH2, Ac-PL3-Asp-Ala-B5-Asp-Asp-Ala-Ala-4AmPhe-Val-S8-Phe-Trp-Gln-NH2; stapled peptide composition) [I-323]			3470 nM
XDAXDEAAFAXFWA (not fully specified; As printed: Ac-PL3-Asp-Ala-B5-Asp-Glu-Ala-Ala-Phe-Ala-S8-Phe-Trp-Ala-NH2. N-terminal Ac; C-terminal amide; PL3 (1), B5 (4), S8 (11) stapled by olefin metathesis (PL3-B5 and B5-S8), Stapled peptide composition; this is the later-eluting isomer composition) [I-187]	3320 nM	204 nM	
Ac-[αAllylPro]DA[B5(4)]DDAA[3Thi]V[S8]FWQ-NH2 (staple 1-4, 4-11, Ac-PL3-Asp-Ala-B5-Asp-Asp-Ala-Ala-3Thi-Val-S8-Phe-Trp-Gln-NH2; stapled peptide composition) [I-326]			1750 nM
Ac-[αAllylPro]DA[B5(19)]D[dE]AAFV[S8]FWQ-NH2 (staple 1-4, 4-11, Stapled peptide composition) [I-182]	2800 nM	750 nM	
Ac-[αAllylPro]NA[B5(4)]DEAAFV[S8]FWQ-NH2 (staple 1-4, 4-11, Stapled peptide composition; this is the later-eluting isomer composition) [I-200]	5000 nM		
Ac-[αAllylPro]DA[B5]NEAAFV[S8]FWQ-NH2 (staple 1-4, 4-11, Stapled peptide composition) [I-198]	5000 nM	538 nM	
Ac-[αAllylPro]NA[B5]DEAAFV[S8]FWQ-NH2 (staple 1-4, 4-11, Stapled peptide composition; this is the earlier-eluting isomer composition) [I-199]	5000 nM		
Ac-[αAllylPro]DA[B5(4)]DEAA[Phe(3,4,5-F3)]V[S8]FWQ-NH2 (staple 1-4, 4-11; not fully specified; printed as Ac-PL3-Asp-Ala-B5-Asp-Glu-Ala-Ala-345FF-Val-S8-Phe-Trp-Gln-NH2, Stapled peptide composition) [I-211]	5000 nM		
XDIXDEAAFQXFWQ (not fully specified; As printed: Ac-PL3-Asp-Ile-B5-Asp-Glu-Ala-Ala-Phe-Gln-S8-Phe-Trp-Gln-NH2. N-terminal Ac; C-terminal amide; PL3 (1), B5 (4), S8 (11) stapled by olefin metathesis (PL3-B5 and B5-S8), Stapled peptide composition; this is the later-eluting isomer composition) [I-181]	310 nM	51 nM	
Ac-[αAllylPro]DA[B5(4)]DDAA[Phe(3-Cl)]V[S8]FWQ-NH2 (staple 1-4, 4-11; not fully specified; printed as Ac-PL3-Asp-Ala-B5-Asp-Asp-Ala-Ala-3C1F-Val-S8-Phe-Trp-Gln-NH2, Ac-PL3-Asp-Ala-B5-Asp-Asp-Ala-Ala-3C1F-Val-S8-Phe-Trp-Gln-NH2; stapled peptide composition) [I-307]			4200 nM
